B1: Proline-rich nuclear receptor coactivator 2 (Homo sapiens), Q9NPJ4-1 (parent)
chain: MGGGERYNIPAPQSRNVSKNQQQLNRQKTKEQNSQMKIVHKKKERGHGYNSSAAAWQAMQNGGKNKNFPNNQSWNSSLSGPRLLFKSQANQNYAGAKFSEPPSPSVLPKPPSHWVPVSFNPSDKEIMTFQLKTLLKVQV
partner: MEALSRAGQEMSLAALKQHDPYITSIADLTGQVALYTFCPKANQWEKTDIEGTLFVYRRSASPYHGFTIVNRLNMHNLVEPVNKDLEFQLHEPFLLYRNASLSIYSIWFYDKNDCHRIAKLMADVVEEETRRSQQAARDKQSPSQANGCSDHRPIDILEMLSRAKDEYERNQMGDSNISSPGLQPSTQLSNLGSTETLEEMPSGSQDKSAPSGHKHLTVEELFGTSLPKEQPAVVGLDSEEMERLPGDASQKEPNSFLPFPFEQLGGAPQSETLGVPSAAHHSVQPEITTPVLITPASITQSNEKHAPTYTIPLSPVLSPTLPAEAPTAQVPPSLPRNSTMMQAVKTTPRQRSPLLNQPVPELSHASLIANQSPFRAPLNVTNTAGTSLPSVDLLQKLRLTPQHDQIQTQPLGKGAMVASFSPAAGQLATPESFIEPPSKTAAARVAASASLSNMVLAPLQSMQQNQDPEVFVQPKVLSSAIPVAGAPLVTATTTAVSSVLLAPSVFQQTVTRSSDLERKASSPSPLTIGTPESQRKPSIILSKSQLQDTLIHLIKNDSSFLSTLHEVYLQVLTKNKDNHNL
B2: mRNA-decapping enzyme 1A (Homo sapiens), Q9NPI6 (parent)
chain: B1 partner

Variants of: B1
Details: with dcp1a_human DCP1A

Variant	effect of a mutation on the interaction
P108A	decreasing interaction strength
K109A	disrupting interaction strength
W114A	disrupting interaction strength

Variants of: B2
Details: with PNRC2, Q9NPJ4-1

Variant	effect of a mutation on the interaction
MEALSRAGQEMSLAALKQHDPYITSIADLTGQVALATFCPKANQWEKTDIEGTLFVYRRSASPYHGFTIVNRLNMHNLVEPVNKDLEFQLHEPFLLYRNASLSIYSIWFYDKNDCHRIAKLMADVVEEETRRSQQAARDKQSPSQANGCSDHRPIDILEMLSRAKDEYERNQMGDSNISSPGLQPSTQLSNLGSTETLEEMPSGSQDKSAPSGHKHLTVEELFGTSLPKEQPAVVGLDSEEMERLPGDASQKEPNSFLPFPFEQLGGAPQSETLGVPSAAHHSVQPEITTPVLITPASITQSNEKHAPTYTIPLSPVLSPTLPAEAPTAQVPPSLPRNSTMMQAVKTTPRQRSPLLNQPVPELSHASLIANQSPFRAPLNVTNTAGTSLPSVDLLQKLRLTPQHDQIQTQPLGKGAMVASFSPAAGQLATPESFIEPPSKTAAARVAASASLSNMVLAPLQSMQQNQDPEVFVQPKVLSSAIPVAGAPLVTATTTAVSSVLLAPSVFQQTVTRSSDLERKASSPSPLTIGTPESQRKPSIILSKSQLQDTLIHLIKNDSSFLSTLHEVYLQVLTKNKDNHNL [Y36A]	decreasing interaction strength
MEALSRAGQEMSLAALKQHDPYITSIADLTGQVALYTFCPKANQWEKTDIEGTLFVYRRSASPYHGFTIVNRLNMHNLVEPVNKDLEFQLHEPALLYRNASLSIYSIWFYDKNDCHRIAKLMADVVEEETRRSQQAARDKQSPSQANGCSDHRPIDILEMLSRAKDEYERNQMGDSNISSPGLQPSTQLSNLGSTETLEEMPSGSQDKSAPSGHKHLTVEELFGTSLPKEQPAVVGLDSEEMERLPGDASQKEPNSFLPFPFEQLGGAPQSETLGVPSAAHHSVQPEITTPVLITPASITQSNEKHAPTYTIPLSPVLSPTLPAEAPTAQVPPSLPRNSTMMQAVKTTPRQRSPLLNQPVPELSHASLIANQSPFRAPLNVTNTAGTSLPSVDLLQKLRLTPQHDQIQTQPLGKGAMVASFSPAAGQLATPESFIEPPSKTAAARVAASASLSNMVLAPLQSMQQNQDPEVFVQPKVLSSAIPVAGAPLVTATTTAVSSVLLAPSVFQQTVTRSSDLERKASSPSPLTIGTPESQRKPSIILSKSQLQDTLIHLIKNDSSFLSTLHEVYLQVLTKNKDNHNL [F94A]	decreasing interaction strength
MEALSRAGQEMSLAALKQHDPYITSIADLTGQVALYTFCPKANQAEKTDIEGTLFVYRRSASPYHGFTIVNRLNMHNLVEPVNKDLEFQLHEPFLLYRNASLSIYSIWFYDKNDCHRIAKLMADVVEEETRRSQQAARDKQSPSQANGCSDHRPIDILEMLSRAKDEYERNQMGDSNISSPGLQPSTQLSNLGSTETLEEMPSGSQDKSAPSGHKHLTVEELFGTSLPKEQPAVVGLDSEEMERLPGDASQKEPNSFLPFPFEQLGGAPQSETLGVPSAAHHSVQPEITTPVLITPASITQSNEKHAPTYTIPLSPVLSPTLPAEAPTAQVPPSLPRNSTMMQAVKTTPRQRSPLLNQPVPELSHASLIANQSPFRAPLNVTNTAGTSLPSVDLLQKLRLTPQHDQIQTQPLGKGAMVASFSPAAGQLATPESFIEPPSKTAAARVAASASLSNMVLAPLQSMQQNQDPEVFVQPKVLSSAIPVAGAPLVTATTTAVSSVLLAPSVFQQTVTRSSDLERKASSPSPLTIGTPESQRKPSIILSKSQLQDTLIHLIKNDSSFLSTLHEVYLQVLTKNKDNHNL [W45A]	decreasing interaction strength
MEALSRAGQEMSLAALKQHDPYITSIADLTGQVALYTFCPKANQWEKTDIEGTLFVYRRSASPYHGFTIVNRLNMHNLVEPVNKDLEFQLHEPFLLYANASLSIYSIWFYDKNDCHRIAKLMADVVEEETRRSQQAARDKQSPSQANGCSDHRPIDILEMLSRAKDEYERNQMGDSNISSPGLQPSTQLSNLGSTETLEEMPSGSQDKSAPSGHKHLTVEELFGTSLPKEQPAVVGLDSEEMERLPGDASQKEPNSFLPFPFEQLGGAPQSETLGVPSAAHHSVQPEITTPVLITPASITQSNEKHAPTYTIPLSPVLSPTLPAEAPTAQVPPSLPRNSTMMQAVKTTPRQRSPLLNQPVPELSHASLIANQSPFRAPLNVTNTAGTSLPSVDLLQKLRLTPQHDQIQTQPLGKGAMVASFSPAAGQLATPESFIEPPSKTAAARVAASASLSNMVLAPLQSMQQNQDPEVFVQPKVLSSAIPVAGAPLVTATTTAVSSVLLAPSVFQQTVTRSSDLERKASSPSPLTIGTPESQRKPSIILSKSQLQDTLIHLIKNDSSFLSTLHEVYLQVLTKNKDNHNL [R98A]	decreasing interaction strength
MEALSRAGQEMSLAALKQHDPYITSIADLTGQVALYTFCPKANQWEKTDIEGTLFVYRRSASPYHGFTIVNRLNMHNLVEPVNKDLEFQLHEPFLAYRNASLSIYSIWFYDKNDCHRIAKLMADVVEEETRRSQQAARDKQSPSQANGCSDHRPIDILEMLSRAKDEYERNQMGDSNISSPGLQPSTQLSNLGSTETLEEMPSGSQDKSAPSGHKHLTVEELFGTSLPKEQPAVVGLDSEEMERLPGDASQKEPNSFLPFPFEQLGGAPQSETLGVPSAAHHSVQPEITTPVLITPASITQSNEKHAPTYTIPLSPVLSPTLPAEAPTAQVPPSLPRNSTMMQAVKTTPRQRSPLLNQPVPELSHASLIANQSPFRAPLNVTNTAGTSLPSVDLLQKLRLTPQHDQIQTQPLGKGAMVASFSPAAGQLATPESFIEPPSKTAAARVAASASLSNMVLAPLQSMQQNQDPEVFVQPKVLSSAIPVAGAPLVTATTTAVSSVLLAPSVFQQTVTRSSDLERKASSPSPLTIGTPESQRKPSIILSKSQLQDTLIHLIKNDSSFLSTLHEVYLQVLTKNKDNHNL [L96A]	disrupting interaction strength

From IntAct's records for PubMed 23085078
